Patent publication US20250027901A1

Molecular target: Maleimide-modified SpyTag peptide (MCA-SpyTag)
Test: QCMD, nanobody-SpyCatcher coupling to maleimide-SpyTag peptide on HDT SAM

Q: How did the Density per cm^2 turn out when “VHH72-8 aa-spyCatcher-3C cleavage site-His8” was run?
A: 6.5e+12 per cm^2

Q: What about the gained mass (ng/cm^2) of the same substance?
A: 313 ng/cm^2
